Tested on: Myelin Basic Protein (Upstate USA, Inc. cat. no: 13-104)

Substance | increase in fluorescence over time (real-time kinase assay)
MAP kinase2/Erk2 (Upstate USA, Inc.) | greater than 4 fold increase in fluorescence over time
PKCβII (Upstate USA, Inc.) | greater than 4 fold increase in fluorescence over time
MAP kinase1/Erk1 (Upstate USA, Inc.) | greater than 4 fold increase in fluorescence over time

Reference: patent US20060177918
